Earlier results on one substance are cited in paper PMC4376447.

As usually defined, the Kd is the free concentration of one partner at which half of the binding sites on the other are occupied at equilibrium, for simple one-to-one binding.

The target of the data set is S100A10 (Homo sapiens) (UniProt P60903). Description: ITC. In general terms: In ITC the heat of successive injections is recorded.
UniProt P60903, sequence (P60903 whole entry): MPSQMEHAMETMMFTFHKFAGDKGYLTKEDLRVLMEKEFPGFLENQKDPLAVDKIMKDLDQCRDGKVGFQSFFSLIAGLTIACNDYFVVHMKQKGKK

For the substance “Annexin A2 N-terminus (from UniProt P07355)”, the Kd was 0.5 µM.
